# Data published in patent EP4335870A1 (NantCell, Inc., dated 2024).
# Numbering of substitutions follows the chain as printed.
# B1: N-612-017 (antibody, V domains shown)
# VH: EVQLVESGGGLVQPGGSLRLSCAASGFTFSSYAMHWVRQAPGKGLEWVSAIWGSGSNTYYADSVKGRFTISRDNSKNTLYLQMNSLRAEDTAVYYCARGRDLAAFTKTAFDVWGQGTLVTVSS
# VL: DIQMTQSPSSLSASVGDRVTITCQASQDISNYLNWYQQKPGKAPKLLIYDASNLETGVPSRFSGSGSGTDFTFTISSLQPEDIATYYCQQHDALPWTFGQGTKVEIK
# B2: N-612-004 (antibody, V domains shown)
# VH: EVQLVESGGGLVQPGGSLRLSCAASGFTFSSYYMHWVRQAPGKGLEWVSAISGSGGYTYYADSVKGRFTISRDNSKNTLYLQMNSLRAEDTAVYYCARDRDHAYDWGFDVWGQGTLVTVSS
# VL: DIQMTQSPSSLSASVGDRVTITCQASQDISNYLNWYQQKPGKAPKLLIYDASNLETGVPSRFSGSGSGTDFTFTISSLQPEDIATYYCQQWADWPLTFGQGTKVEIK
# B3: N-612-056 (antibody, V domains shown)
# VH: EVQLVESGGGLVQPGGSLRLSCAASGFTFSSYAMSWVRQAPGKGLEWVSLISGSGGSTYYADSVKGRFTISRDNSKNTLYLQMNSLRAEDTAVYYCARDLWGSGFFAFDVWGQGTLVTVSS
# VL: B2 VL with W91D, D93G, W94T
# B4: N-612-014 (antibody, V domains shown)
# VH: EVQLVESGGGLVQPGGSLRLSCAASGFTFSSYAMTWVRQAPGKGLEWVSYISGSGGGTYYADSVKGRFTISRDNSKNTLYLQMNSLRAEDTAVYYCARDRWASGWLAFDVWGQGTLVTVSS
# VL: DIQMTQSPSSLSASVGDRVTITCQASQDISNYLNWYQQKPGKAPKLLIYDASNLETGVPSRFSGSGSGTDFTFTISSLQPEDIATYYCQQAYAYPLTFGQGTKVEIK
# Molecular target: SARS-CoV-2 Spike S1, wildtype (Table 13) (SARS-CoV-2, UniProt P0DTC2 16-685)
row,Binder,Kd
1,B1,12 nM
2,B2,0.62 nM
3,B3,4.5 nM
4,B4,11.4 nM
